Test results published in article doi:10.1101/2025.02.07.637115 (bioRxiv, 2025).
Each block holds one molecule with its values, some of them ahead of it.

B1: ActRIIB2-Fc (trap containing two ActRIIB ECDs) (Fc fusion)
chain: SGRGEAETRECIYYNANWELERTNQSGLERCEGEQDKRLHCYASWRNSSGTIELVKKGCWLDDFNCYDRQECVATEENPQVYFCCCEGNFCNERFTHLPEAGGPEVTYEPPPTAP
B2: ALK3 extracellular domain (ALK3 arm of ALK3-ActRIIB in the cryoEM structure) (domain or fragment)
chain: QNLDSMLHGTGMKSDSDQKKSENGVTLAPEDTLPFLKCYCSGHCPDDAINNTCITNGHCFAIIEEDDQGETTLASGCMKYEGSDFQCKDSPKAQLRRTIECCRTNLCNQYLQPTLPPVVIGPFFDGSIR
B3: ALK3-Fc (homodimeric Fc-fusion of ALK3-ECD) (Fc fusion)
chain: B2 chain
B4: BMP6, mammalian expressed (glycosylated), recombinant human (ligand)
chain: SASSRRRQQSRNRSTQSQDVARVSSASDYNSSELKTACRKHELYVSFQDLGWQDWIIAPKGYAANYCDGECSFPLNAHMNATNHAIVQTLVHLMNPEYVPKPCCAPTKLNAISVLYFDDNSNVILKKYRNMVVRACGCH
modifications: N-linked glycosylation at Asn454 (prehelix loop)
B5: deglycosylated BMP6 (ligand)
chain: B4 chain
modifications: deglycosylated with PNGase F

How the values were obtained:
[1] = biological target: ActRIIB1-Fc (trap with a single ActRIIB ECD) (human); assay: SPR
[2] = biological target: B4; assay: SPR
[3] = biological target: B4; assay: cryo-EM structure
[4] = biological target: ALK3-ActRIIB-Fc heterodimeric trap (human, UniProt P36894;Q13705); assay: SPR
[5] = biological target: ALK2-ActRIIB-Fc heterodimeric trap (human, UniProt Q04771;Q13705); assay: SPR
cryo-EM structure = biological target: the molecule itself; assay: cryo-EM structure

Chain of ALK2-ActRIIB-Fc heterodimeric trap (Q04771 21-123, one chain of several): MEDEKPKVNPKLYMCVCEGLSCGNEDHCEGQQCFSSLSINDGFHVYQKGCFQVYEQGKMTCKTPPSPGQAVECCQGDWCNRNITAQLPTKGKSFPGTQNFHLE

Kd [1]: 0.282 nM
Molecule: BMP6, mammalian expressed (glycosylated), recombinant human (from UniProt P22004 375-513) (ligand)

Molecule: B1
Kd [2]: 0.124 nM

Molecule: B2
binding result [3]: binds

Molecule: B3
binding result [2]: binds

Molecule: B4
Kd [4]: 0.0517 nM
Kd [5]: 0.036 nM
binding result (cryo-EM structure): binds

Molecule: B5
Kd [4]: 0.0714 nM
Kd [5]: 0.164 nM
